In paper PMC10855902 (International Journal of Molecular Sciences, 2024):

B1: EGF fragment 10–22 (HDGYCLHDGVCMY) (peptide)
peptide: HDGYCLHDGVCMY
notes: EGF, human, residues 10-22; numbers count on: the mature protein; source: synthetic peptide (SPPS, Fmoc; crude, without preparative HPLC)
B2: EGF fragment 10–15 (HDGYCL) (peptide)
peptide: HDGYCL
notes: EGF, human, residues 10-15; numbers count on: the mature protein; also called 10–15 EGF fragment; source: synthetic peptide (SPPS, Fmoc; crude, without preparative HPLC)

Experiments:
Details in all cases: both partners purified
[1] = molecular target: T1, Recombinant human EGFR protein (Active) (ab155639) (human, UniProt P00533 25-645, labelled with RED-tris-NTA 2nd Generation dye); assay: MST; RED-tris-NTA-labelled EGFR 25 nM, ligand in a 16-step 1:1 dilution series in PBS-T, 30 min at room temperature; assay concentration of the ligand 50 μM
T1 construct: epidermal growth factor receptor (EGFR, ErbB-1), human, recombinant; also called EGF receptor; ErbB-1; source: bought: Abcam (ab155639), recombinant

[2] = molecular target: T1, Recombinant human EGFR protein (Active) …; assay: MST; RED-tris-NTA-labelled EGFR 25 nM, ligand in a 16-step 1:1 dilution series in PBS-T, 30 min at room temperature; assay concentration of the ligand 100 μM
[3] = molecular target: T1, Recombinant human EGFR protein (Active) …; assay: MST; RED-tris-NTA-labelled EGFR 25 nM, ligand in a 16-step 1:1 dilution series in PBS-T, 30 min at room temperature; assay concentration of the ligand 463 μM
[4] = molecular target: T1, Recombinant human EGFR protein (Active) …; assay: MST; RED-tris-NTA-labelled EGFR 25 nM, ligand in a 16-step 1:1 dilution series in PBS-T, 30 min at room temperature; assay concentration of the ligand 3 mM
[5] = molecular target: T1, Recombinant human EGFR protein (Active) …; assay: MST; RED-tris-NTA-labelled EGFR 25 nM, ligand in a 16-step 1:1 dilution series in PBS-T, 30 min at room temperature; assay concentration of the ligand 1 mM
[6] = molecular target: T1, Recombinant human EGFR protein (Active) …; assay: MST; RED-tris-NTA-labelled EGFR 25 nM, ligand in a 16-step 1:1 dilution series in PBS-T, 30 min at room temperature; assay concentration of the ligand 250 μM
[7] = molecular target: T1, Recombinant human EGFR protein (Active) …; assay: MST; RED-tris-NTA-labelled EGFR 25 nM, ligand in a 16-step 1:1 dilution series in PBS-T, 30 min at room temperature; assay concentration of the ligand 6.02 mM
[8] = molecular target: T1, Recombinant human EGFR protein (Active) …; assay: MST; RED-tris-NTA-labelled EGFR 25 nM, ligand in a 16-step 1:1 dilution series in PBS-T, 30 min at room temperature; assay concentration of the ligand 10 mM
[9] = molecular target: T1, Recombinant human EGFR protein (Active) …; assay: MST; RED-tris-NTA-labelled EGFR 25 nM, ligand in a 16-step 1:1 dilution series in PBS-T, 30 min at room temperature; assay concentration of the ligand 2.5 mM
[10] = molecular target: T1, Recombinant human EGFR protein (Active) …; assay: MST; RED-tris-NTA-labelled EGFR 25 nM, ligand in a 16-step 1:1 dilution series in PBS-T, 30 min at room temperature; assay concentration of the ligand 5 mM

| Binder | Kd [1] [µM] | Kd [2] [µM] | Kd [3] [µM] | Kd [4] [µM] | Kd [5] [µM] | Kd [6] [µM] | Kd [7] [µM] | Kd [8] [µM] | Kd [9] [µM] | Kd [10] [µM] |
| --- | --- | --- | --- | --- | --- | --- | --- | --- | --- | --- |
| B1 | 0.0705 | 8.2 | 21.2 | 416 | 35.9 | – | – | – | – | – |
| B2 | 0.0664 | 0.0174 | – | – | – | 48.4 | 715 | 533 | 431 | 663 |
